3 molecules from patent US20240124563A1 can be followed below.

In assay [1] the target is monkey MSLN full-length protein on HEK293T cells (monkey). As to the kind of experiment: FACS, HEK293T-monkey-MSLN cells, antibody 4 nM. A general note: In flow cytometry, cells or beads pass a laser one at a time.
Assay [2] has the same target. Nature of the assay: FACS, HEK293T-monkey-MSLN cells, antibody 0.8 nM.
The target is the same in assay [3]. As to the kind of experiment: FACS, HEK293T-monkey-MSLN cells, antibody 100 nM.
The target is the same in assay [4]. As to the kind of experiment: FACS, HEK293T-monkey-MSLN cells, antibody 0.032 nM.
Assay [5] has the same target. As to the kind of experiment: FACS, HEK293T-monkey-MSLN cells, antibody 20 nM.
Assay [6] shares this target. As to the kind of experiment: FACS, HEK293T-monkey-MSLN cells, antibody 0.00128 nM.
The target is the same in assay [7]. Nature of the assay: FACS, HEK293T-monkey-MSLN cells, antibody 0.0064 nM.
Assay [8] has the same target. Nature of the assay: FACS, HEK293T-monkey-MSLN cells, antibody 0.16 nM.
Assay [9] addresses human MSLN-R3 protein on HEK293T cells (human) (UniProt Q13421). As to the kind of experiment: FACS, HEK293T-hMSLN R3 cells.
Assay [10] has as its target monkey MSLN full-length protein on HEK293T cells (monkey). As to the kind of experiment: FACS, HEK293T-monkey MSLN cells.

Chain of human MSLN-R3 protein on HEK293T cells (human) (Q13421 495-614, form in doubt): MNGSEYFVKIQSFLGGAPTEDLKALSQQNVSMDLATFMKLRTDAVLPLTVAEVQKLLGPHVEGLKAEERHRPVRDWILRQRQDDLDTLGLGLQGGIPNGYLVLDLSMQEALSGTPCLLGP

B1: Tab020 (YP223, rabbitIgG1) (antibody, V domains shown)
VH: QEQLEESGGDLVQPEGSLTLTCKASGLDFSSSYWICWVRQAPGKGLEWIGCRHTFTANTWSASWVNGRFTISRSTSLGTVDLKMTSLTAADTATYFCARDESNNDGWDFKLWGPGTLVTVSS
VL: AYDMTQTPASVSAAVGGTVTIKCQASQSISNYLAWYQQKPGQPPKLLIYQASTLAPGVSSRFKGSGSGTEFTLTISGVECADAATYYCQQGYTSSNVENVFGGGTGVVVGD
For B1, the FACS signal (MFI) turned out to be 90 in assay [1]; 88 in [2]; 126 in assay [3]; 85 in [4]; 100 in assay [5]; 85 in assay [6]. The results for the FACS signal (MFI) in assay [7] and in assay [8] were 85 and 86, respectively.

B2: Tab107 (YP3, hIgG1) (antibody, V domains shown)
VH: QEQLVESGGGLVQPGASLTLTCTASGIDFSRYYMCWVRQAPGKGLEGIACIYIGGSGSTYYASWAKGRFTISKASSTTVTLQMTSLTAADTATYFCARGTNLNYIFRLWGPGTLVTVSS
VL: DVVMTQTPSPVSAAVGGTVTIKCQASQSINNGLAWYQQKPGQPPRLLIYSASNLESGVPSRFKGSGSGTEFTLTISDLECDDAATYYCQCIWDGNSYVNAFGGGTEVVVRT
With B2, the FACS signal (MFI) was 3140 in assay [1]; 918 in assay [2]; 3930 in assay [3]; 131 in assay [4]; 3650 in [5]; 119 in assay [6]. Besides, the FACS signal (MFI) in assay [7] stood at 96; in assay [8], 288.

B3: Tab106 (YP218, hIgG1) (antibody, V domains shown)
VH: QQQLEESGGGLVKPEGSLTLTCKASGFDLGFYFYACWVRQAPGKGLEWIACIYTAGSGSTYYASWAKGRFTISKASSTTVTLQMTSLAAADTATYFCARSTANTRSTYYLNLWGPGTLVTVSS
VL: DVVMTQTPASVSEPVGGTVTIKCQASQRISSYLSWYQQKPGQRPKLLIFGASTLASGVPSRFKGSGSGTEYTLTISDLECADAATYYCQSYAYFDSNNWHAFGGGTEVVVRT
By EC50 is commonly meant the concentration at which the effect is half-maximal. In the case of B3, the FACS signal (MFI) in [1] worked out at 2440; in assay [2], 860; in [3], 3290; in assay [4], 142; in assay [5] it was 2660; in assay [6] it was 90. The FACS signal (MFI) in assay [7] amounted to 100; in assay [8] it was 313. Also, the Mean Fluorescence Intensity of Cells in assay [9] worked out at 1690. For the same molecule, in [10], the EC50 was 1.15 nM. This molecule also returned a Max MFI in assay [10] of 8640.
